Reference: IntAct's records for PubMed 16227972

B1: Gigaxonin (Homo sapiens), Q9H2C0 (parent)
chain: MAEGSAVSDPQHAARLLRALSSFREESRFCDAHLVLDGEEIPVQKNILAAASPYIRTKLNYNPPKDDGSTYKIELEGISVMVMREILDYIFSGQIRLNEDTIQDVVQAADLLLLTDLKTLCCEFLEGCIAAENCIGIRDFALHYCLHHVHYLATEYLETHFRDVSSTEEFLELSPQKLKEVISLEKLNVGNERYVFEAVIRWIAHDTEIRKVHMKDVMSALWVSGLDSSYLREQMLNEPLVREIVKECSNIPLSQPQQGEAMLANFKPRGYSECIVTVGGEERVSRKPTAAMRCMCPLYDPNRQLWIELAPLSMPRINHGVLSAEGFLFVFGGQDENKQTLSSGEKYDPDANTWTALPPMNEARHNFGIVEIDGMLYILGGEDGEKELISMECYDIYSKTWTKQPDLTMVRKIGCYAAMKKKIYAMGGGSYGKLFESVECYDPRTQQWTAICPLKERRFGAVACGVAMELYVFGGVRSREDAQGSEMVTCKSEFYHDEFKRWIYLNDQNLCIPASSSFVYGAVPIGASIYVIGDLDTGTNYDYVREFKRSTGTWHHTKPLLPSDLRRTGCAALRIANCKLFRLQLQQGLFRIRVHSP

Variants of: B1
Details: with uba1_human UBA1, P22314
Sequence of uba1_human UBA1, P22314 (P22314 whole entry): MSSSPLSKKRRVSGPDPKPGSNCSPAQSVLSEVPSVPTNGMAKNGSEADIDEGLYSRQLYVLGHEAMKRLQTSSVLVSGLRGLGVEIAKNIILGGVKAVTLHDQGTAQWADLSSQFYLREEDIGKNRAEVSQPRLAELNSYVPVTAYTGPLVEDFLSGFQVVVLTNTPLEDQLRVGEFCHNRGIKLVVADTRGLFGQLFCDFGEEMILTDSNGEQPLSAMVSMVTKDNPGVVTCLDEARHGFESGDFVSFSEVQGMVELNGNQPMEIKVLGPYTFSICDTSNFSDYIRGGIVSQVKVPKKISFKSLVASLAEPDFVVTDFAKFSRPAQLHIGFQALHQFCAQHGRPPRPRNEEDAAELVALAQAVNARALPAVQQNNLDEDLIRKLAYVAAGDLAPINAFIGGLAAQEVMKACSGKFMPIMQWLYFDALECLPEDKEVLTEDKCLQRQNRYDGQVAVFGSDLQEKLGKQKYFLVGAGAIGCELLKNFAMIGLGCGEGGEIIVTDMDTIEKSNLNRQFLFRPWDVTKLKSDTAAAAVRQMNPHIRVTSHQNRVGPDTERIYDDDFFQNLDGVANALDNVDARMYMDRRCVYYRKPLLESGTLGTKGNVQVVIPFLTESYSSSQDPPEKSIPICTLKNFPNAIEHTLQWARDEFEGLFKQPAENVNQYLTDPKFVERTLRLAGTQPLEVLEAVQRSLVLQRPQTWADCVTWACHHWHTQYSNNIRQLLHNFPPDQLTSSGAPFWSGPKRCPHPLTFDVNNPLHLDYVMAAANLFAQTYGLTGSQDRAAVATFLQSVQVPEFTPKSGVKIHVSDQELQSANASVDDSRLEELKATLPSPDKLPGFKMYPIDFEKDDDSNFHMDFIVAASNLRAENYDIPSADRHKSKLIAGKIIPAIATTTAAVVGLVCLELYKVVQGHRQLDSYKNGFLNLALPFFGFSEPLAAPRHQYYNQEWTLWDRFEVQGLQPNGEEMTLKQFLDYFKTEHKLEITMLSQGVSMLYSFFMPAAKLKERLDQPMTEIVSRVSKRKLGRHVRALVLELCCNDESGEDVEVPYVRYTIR

effect of a mutation on the interaction	Variant
decreasing interaction	MAEGSAVSDPQHAARLLRALSSFREESRFCDAHLVLDGEEIPVQKNILAAASPYIRTKLNYNPPKDDGSTYKIELEGISVMFMREILDYIFSGQIRLNEDTIQDVVQAADLLLLTDLKTLCCEFLEGCIAAENCIGIRDFALHYCLHHVHYLATEYLETHFRDVSSTEEFLELSPQKLKEVISLEKLNVGNERYVFEAVIRWIAHDTEIRKVHMKDVMSALWVSGLDSSYLREQMLNEPLVREIVKECSNIPLSQPQQGEAMLANFKPRGYSECIVTVGGEERVSRKPTAAMRCMCPLYDPNRQLWIELAPLSMPRINHGVLSAEGFLFVFGGQDENKQTLSSGEKYDPDANTWTALPPMNEARHNFGIVEIDGMLYILGGEDGEKELISMECYDIYSKTWTKQPDLTMVRKIGCYAAMKKKIYAMGGGSYGKLFESVECYDPRTQQWTAICPLKERRFGAVACGVAMELYVFGGVRSREDAQGSEMVTCKSEFYHDEFKRWIYLNDQNLCIPASSSFVYGAVPIGASIYVIGDLDTGTNYDYVREFKRSTGTWHHTKPLLPSDLRRTGCAALRIANCKLFRLQLQQGLFRIRVHSP [V82F]

Variants of: B1
Details: with uba1_rat Uba1, Q5U300
Sequence of uba1_rat Uba1, Q5U300 (Q5U300 whole entry): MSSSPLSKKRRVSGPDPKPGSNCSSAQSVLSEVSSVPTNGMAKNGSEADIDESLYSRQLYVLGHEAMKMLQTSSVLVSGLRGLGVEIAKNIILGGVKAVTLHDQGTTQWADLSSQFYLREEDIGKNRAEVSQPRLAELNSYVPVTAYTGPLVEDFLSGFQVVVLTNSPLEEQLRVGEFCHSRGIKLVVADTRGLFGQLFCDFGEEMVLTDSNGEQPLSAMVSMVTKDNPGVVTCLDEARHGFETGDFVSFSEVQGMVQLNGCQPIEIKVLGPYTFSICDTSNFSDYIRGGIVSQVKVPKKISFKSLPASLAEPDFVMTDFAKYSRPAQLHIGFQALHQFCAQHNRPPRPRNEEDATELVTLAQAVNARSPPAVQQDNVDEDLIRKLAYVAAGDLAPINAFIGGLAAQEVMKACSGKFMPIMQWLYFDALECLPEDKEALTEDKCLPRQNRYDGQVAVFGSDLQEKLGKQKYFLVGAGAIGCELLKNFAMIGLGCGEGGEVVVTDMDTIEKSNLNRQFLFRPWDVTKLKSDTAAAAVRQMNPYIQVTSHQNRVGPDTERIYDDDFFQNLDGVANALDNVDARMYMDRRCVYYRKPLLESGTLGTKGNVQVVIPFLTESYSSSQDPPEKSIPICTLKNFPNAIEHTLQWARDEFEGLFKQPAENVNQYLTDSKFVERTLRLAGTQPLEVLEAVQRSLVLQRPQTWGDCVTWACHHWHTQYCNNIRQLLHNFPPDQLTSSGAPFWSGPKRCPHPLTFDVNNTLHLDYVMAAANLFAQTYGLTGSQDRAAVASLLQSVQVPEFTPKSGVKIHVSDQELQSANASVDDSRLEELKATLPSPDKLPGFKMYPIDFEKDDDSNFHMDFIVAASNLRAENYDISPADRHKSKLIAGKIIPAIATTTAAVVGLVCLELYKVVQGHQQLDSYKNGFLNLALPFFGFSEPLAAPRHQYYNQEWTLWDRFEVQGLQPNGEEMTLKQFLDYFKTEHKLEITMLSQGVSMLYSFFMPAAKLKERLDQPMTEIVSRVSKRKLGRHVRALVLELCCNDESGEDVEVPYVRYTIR

effect of a mutation on the interaction	Variant
decreasing interaction	MAEGSAVSDPQHAARLLRALSSFREESRFCDAHLVLDGEEIPVQKNILAAASPYIRTKLNYNPPKDDGSTYKIELEGISVMFMREILDYIFSGQIRLNEDTIQDVVQAADLLLLTDLKTLCCEFLEGCIAAENCIGIRDFALHYCLHHVHYLATEYLETHFRDVSSTEEFLELSPQKLKEVISLEKLNVGNERYVFEAVIRWIAHDTEIRKVHMKDVMSALWVSGLDSSYLREQMLNEPLVREIVKECSNIPLSQPQQGEAMLANFKPRGYSECIVTVGGEERVSRKPTAAMRCMCPLYDPNRQLWIELAPLSMPRINHGVLSAEGFLFVFGGQDENKQTLSSGEKYDPDANTWTALPPMNEARHNFGIVEIDGMLYILGGEDGEKELISMECYDIYSKTWTKQPDLTMVRKIGCYAAMKKKIYAMGGGSYGKLFESVECYDPRTQQWTAICPLKERRFGAVACGVAMELYVFGGVRSREDAQGSEMVTCKSEFYHDEFKRWIYLNDQNLCIPASSSFVYGAVPIGASIYVIGDLDTGTNYDYVREFKRSTGTWHHTKPLLPSDLRRTGCAALRIANCKLFRLQLQQGLFRIRVHSP [V82F]
